Source: doi:10.1101/2024.12.16.628697

Biological target: USP1/UAF1 (UniProt O94782)
Test: global kinetic fit

Sequence of UniProt O94782 (O94782 21-785 G670A/G671A, chain 1 of 2): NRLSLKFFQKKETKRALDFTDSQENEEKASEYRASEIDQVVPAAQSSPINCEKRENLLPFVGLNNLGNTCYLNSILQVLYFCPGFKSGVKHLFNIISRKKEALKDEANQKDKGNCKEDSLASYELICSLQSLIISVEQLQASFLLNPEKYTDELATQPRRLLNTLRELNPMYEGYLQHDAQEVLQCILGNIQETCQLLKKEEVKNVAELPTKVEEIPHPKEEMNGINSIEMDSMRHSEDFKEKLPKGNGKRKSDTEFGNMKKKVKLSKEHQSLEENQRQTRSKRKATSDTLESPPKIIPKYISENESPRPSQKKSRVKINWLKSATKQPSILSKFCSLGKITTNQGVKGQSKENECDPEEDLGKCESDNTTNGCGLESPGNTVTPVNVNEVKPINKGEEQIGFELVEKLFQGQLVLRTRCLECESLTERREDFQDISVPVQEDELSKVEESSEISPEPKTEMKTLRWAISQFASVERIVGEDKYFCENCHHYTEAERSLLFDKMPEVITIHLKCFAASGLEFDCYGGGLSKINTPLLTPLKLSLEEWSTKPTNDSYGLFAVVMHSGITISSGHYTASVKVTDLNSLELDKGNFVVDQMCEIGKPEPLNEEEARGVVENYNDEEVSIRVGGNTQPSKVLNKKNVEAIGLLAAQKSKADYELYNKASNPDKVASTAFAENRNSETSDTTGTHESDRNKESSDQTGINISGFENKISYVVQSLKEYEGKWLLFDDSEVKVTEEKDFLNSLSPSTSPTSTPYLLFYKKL
Sequence of UniProt O94782 (Q8TAF3 9-677, chain 2 of 2, further chain): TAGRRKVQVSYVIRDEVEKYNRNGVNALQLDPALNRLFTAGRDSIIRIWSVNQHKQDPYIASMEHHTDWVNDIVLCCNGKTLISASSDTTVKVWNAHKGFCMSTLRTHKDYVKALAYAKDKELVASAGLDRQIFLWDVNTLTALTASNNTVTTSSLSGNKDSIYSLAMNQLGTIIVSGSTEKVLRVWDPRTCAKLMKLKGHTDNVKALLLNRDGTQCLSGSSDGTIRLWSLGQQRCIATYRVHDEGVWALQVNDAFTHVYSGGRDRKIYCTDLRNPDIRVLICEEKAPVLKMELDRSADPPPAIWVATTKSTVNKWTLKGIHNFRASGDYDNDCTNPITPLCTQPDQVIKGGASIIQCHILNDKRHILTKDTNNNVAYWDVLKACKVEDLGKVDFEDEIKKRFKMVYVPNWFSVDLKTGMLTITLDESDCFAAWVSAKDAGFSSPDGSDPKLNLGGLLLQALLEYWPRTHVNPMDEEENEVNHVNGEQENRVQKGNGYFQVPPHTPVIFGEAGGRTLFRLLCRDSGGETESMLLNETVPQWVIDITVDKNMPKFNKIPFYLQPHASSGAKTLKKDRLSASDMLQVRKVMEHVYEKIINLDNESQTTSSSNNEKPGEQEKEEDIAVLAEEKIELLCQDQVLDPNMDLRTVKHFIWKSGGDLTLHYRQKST

Substance: K63-linked diubiquitinated PCNA (K63-PCNA-Ub2) (from UniProt P12004 1-261; P0CG48 1-76; P0CG48 1-76) (complex)
- koff: 1240 s⁻¹
